Results published in paper PMC5077683.
Where no end group is shown, it is not given here. The star is where a group is joined. Prodan = Prodan fluorogenic core conjugated to Cys (C*)

What was measured:
[1] = target: glutathione S-transferase (GST); assay: ITC
[2] = target: glutathione S-transferase (GST); assay: other fluorescence titration

B1: Prodan-evolver NTVSC*HGF (1) (peptide)
peptide: NTVSC(Prodan)HGF
In the case of B1, the Kd [1] is reported as 2.4 µM and the Kd [2] is reported as 5.2 µM.
